Target: the molecule itself
Assay: cryo-EM structure

B1: wild type human TRPA1 (transient receptor potential channel subfamily A member 1) (natural protein, UniProt O75762 1-1119, looked up)
chain: MKRSLRKMWRPGEKKEPQGVVYEDVPDDTEDFKESLKVVFEGSAYGLQNFNKQKKLKRCDDMDTFFLHYAAAEGQIELMEKITRDSSLEVLHEMDDYGNTPLHCAVEKNQIESVKFLLSRGANPNLRNFNMMAPLHIAVQGMNNEVMKVLLEHRTIDVNLEGENGNTAVIIACTTNNSEALQILLKKGAKPCKSNKWGCFPIHQAAFSGSKECMEIILRFGEEHGYSRQLHINFMNNGKATPLHLAVQNGDLEMIKMCLDNGAQIDPVEKGRCTAIHFAATQGATEIVKLMISSYSGSVDIVNTTDGCHETMLHRASLFDHHELADYLISVGADINKIDSEGRSPLILATASASWNIVNLLLSKGAQVDIKDNFGRNFLHLTVQQPYGLKNLRPEFMQMQQIKELVMDEDNDGCTPLHYACRQGGPGSVNNLLGFNVSIHSKSKDKKSPLHFAASYGRINTCQRLLQDISDTRLLNEGDLHGMTPLHLAAKNGHDKVVQLLLKKGALFLSDHNGWTALHHASMGGYTQTMKVILDTNLKCTDRLDEDGNTALHFAAREGHAKAVALLLSHNADIVLNKQQASFLHLALHNKRKEVVLTIIRSKRWDECLKIFSHNSPGNKCPITEMIEYLPECMKVLLDFCMLHSTEDKSCRDYYIEYNFKYLQCPLEFTKKTPTQDVIYEPLTALNAMVQNNRIELLNHPVCKEYLLMKWLAYGFRAHMMNLGSYCLGLIPMTILVVNIKPGMAFNSTGIINETSDHSEILDTTNSYLIKTCMILVFLSSIFGYCKEAGQIFQQKRNYFMDISNVLEWIIYTTGIIFVLPLFVEIPAHLQWQCGAIAVYFYWMNFLLYLQRFENCGIFIVMLEVILKTLLRSTVVFIFLLLAFGLSFYILLNLQDPFSSPLLSIIQTFSMMLGDINYRESFLEPYLRNELAHPVLSFAQLVSFTIFVPIVLMNLLIGLAVGDIAEVQKHASLKRIAMQVELHTSLEKKLPLWFLRKVDQKSTIVYPNKPRSGGMLFHIFCFLFCTGEIRQEIPNADKSLEMEILKQKYRLKDLTFLLEKQHELIKLIIQKMEIISETEDDDSHCSFQDRFKKEQMEQRNSRWNTVLRAVKAKTHHLEP
modifications: C621 covalently bound to JT010 (TRPA1_(WT-JT010)) or to BITC (TRPA1_(WT-BITC)); N747 glycosylated (two N-acetylglucosamine)
Q: B1 was tested. Which “stoichiometry N” value did it give?
A: 4

B2: human TRPA1 C621S (natural protein, UniProt O75762 1-1119, looked up)
chain: MKRSLRKMWRPGEKKEPQGVVYEDVPDDTEDFKESLKVVFEGSAYGLQNFNKQKKLKRCDDMDTFFLHYAAAEGQIELMEKITRDSSLEVLHEMDDYGNTPLHCAVEKNQIESVKFLLSRGANPNLRNFNMMAPLHIAVQGMNNEVMKVLLEHRTIDVNLEGENGNTAVIIACTTNNSEALQILLKKGAKPCKSNKWGCFPIHQAAFSGSKECMEIILRFGEEHGYSRQLHINFMNNGKATPLHLAVQNGDLEMIKMCLDNGAQIDPVEKGRCTAIHFAATQGATEIVKLMISSYSGSVDIVNTTDGCHETMLHRASLFDHHELADYLISVGADINKIDSEGRSPLILATASASWNIVNLLLSKGAQVDIKDNFGRNFLHLTVQQPYGLKNLRPEFMQMQQIKELVMDEDNDGCTPLHYACRQGGPGSVNNLLGFNVSIHSKSKDKKSPLHFAASYGRINTCQRLLQDISDTRLLNEGDLHGMTPLHLAAKNGHDKVVQLLLKKGALFLSDHNGWTALHHASMGGYTQTMKVILDTNLKCTDRLDEDGNTALHFAAREGHAKAVALLLSHNADIVLNKQQASFLHLALHNKRKEVVLTIIRSKRWDECLKIFSHNSPGNKSPITEMIEYLPECMKVLLDFCMLHSTEDKSCRDYYIEYNFKYLQCPLEFTKKTPTQDVIYEPLTALNAMVQNNRIELLNHPVCKEYLLMKWLAYGFRAHMMNLGSYCLGLIPMTILVVNIKPGMAFNSTGIINETSDHSEILDTTNSYLIKTCMILVFLSSIFGYCKEAGQIFQQKRNYFMDISNVLEWIIYTTGIIFVLPLFVEIPAHLQWQCGAIAVYFYWMNFLLYLQRFENCGIFIVMLEVILKTLLRSTVVFIFLLLAFGLSFYILLNLQDPFSSPLLSIIQTFSMMLGDINYRESFLEPYLRNELAHPVLSFAQLVSFTIFVPIVLMNLLIGLAVGDIAEVQKHASLKRIAMQVELHTSLEKKLPLWFLRKVDQKSTIVYPNKPRSGGMLFHIFCFLFCTGEIRQEIPNADKSLEMEILKQKYRLKDLTFLLEKQHELIKLIIQKMEIISETEDDDSHCSFQDRFKKEQMEQRNSRWNTVLRAVKAKTHHLEP
Q: With B2 as the protein, how does the “stoichiometry N” value read?
A: 4

Reference: publication PMC7205012 (Neuron, 2019)
